Experimental data taken from US20250295737A1 (AstraZeneca / MedImmune, published 2025).
Positions count from the first letter of the chain named. Where two headings read alike, the source gives them in different places. Blank lines part the entries; values can stand above or below the binder they belong to.

Tests used:
Experiment in all cases: cell-based or functional assay
human RXFP1 [1] = target: T1, human RXFP1 (human, UniProt Q9HBX9 1-757)
T1 sequence (looked up): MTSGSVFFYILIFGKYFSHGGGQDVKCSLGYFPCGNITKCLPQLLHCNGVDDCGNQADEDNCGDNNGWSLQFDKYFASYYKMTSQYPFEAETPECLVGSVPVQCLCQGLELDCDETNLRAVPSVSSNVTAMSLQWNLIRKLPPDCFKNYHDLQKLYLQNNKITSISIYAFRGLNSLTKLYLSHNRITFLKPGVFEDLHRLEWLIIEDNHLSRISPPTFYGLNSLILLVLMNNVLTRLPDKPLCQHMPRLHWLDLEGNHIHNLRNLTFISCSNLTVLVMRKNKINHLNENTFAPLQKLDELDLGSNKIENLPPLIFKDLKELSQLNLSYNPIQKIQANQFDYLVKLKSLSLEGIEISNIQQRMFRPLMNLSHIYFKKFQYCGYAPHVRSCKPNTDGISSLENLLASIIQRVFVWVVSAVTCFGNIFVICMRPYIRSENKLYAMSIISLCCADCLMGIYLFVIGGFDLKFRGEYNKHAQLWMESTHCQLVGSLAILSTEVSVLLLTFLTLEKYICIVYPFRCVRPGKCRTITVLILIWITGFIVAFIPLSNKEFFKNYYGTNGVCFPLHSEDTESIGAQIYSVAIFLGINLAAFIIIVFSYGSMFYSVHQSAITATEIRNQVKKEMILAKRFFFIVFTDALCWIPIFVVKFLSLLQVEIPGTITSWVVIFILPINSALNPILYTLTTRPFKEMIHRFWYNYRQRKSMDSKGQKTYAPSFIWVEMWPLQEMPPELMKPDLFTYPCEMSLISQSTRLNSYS

human RXFP2 [2] = target: T2, human RXFP2 (human, UniProt Q8WXD0 1-754)
mouse RXFP1 [3] = target: T3, mouse RXFP1 (mouse, UniProt Q6R6I7 1-758)
T3 sequence (looked up): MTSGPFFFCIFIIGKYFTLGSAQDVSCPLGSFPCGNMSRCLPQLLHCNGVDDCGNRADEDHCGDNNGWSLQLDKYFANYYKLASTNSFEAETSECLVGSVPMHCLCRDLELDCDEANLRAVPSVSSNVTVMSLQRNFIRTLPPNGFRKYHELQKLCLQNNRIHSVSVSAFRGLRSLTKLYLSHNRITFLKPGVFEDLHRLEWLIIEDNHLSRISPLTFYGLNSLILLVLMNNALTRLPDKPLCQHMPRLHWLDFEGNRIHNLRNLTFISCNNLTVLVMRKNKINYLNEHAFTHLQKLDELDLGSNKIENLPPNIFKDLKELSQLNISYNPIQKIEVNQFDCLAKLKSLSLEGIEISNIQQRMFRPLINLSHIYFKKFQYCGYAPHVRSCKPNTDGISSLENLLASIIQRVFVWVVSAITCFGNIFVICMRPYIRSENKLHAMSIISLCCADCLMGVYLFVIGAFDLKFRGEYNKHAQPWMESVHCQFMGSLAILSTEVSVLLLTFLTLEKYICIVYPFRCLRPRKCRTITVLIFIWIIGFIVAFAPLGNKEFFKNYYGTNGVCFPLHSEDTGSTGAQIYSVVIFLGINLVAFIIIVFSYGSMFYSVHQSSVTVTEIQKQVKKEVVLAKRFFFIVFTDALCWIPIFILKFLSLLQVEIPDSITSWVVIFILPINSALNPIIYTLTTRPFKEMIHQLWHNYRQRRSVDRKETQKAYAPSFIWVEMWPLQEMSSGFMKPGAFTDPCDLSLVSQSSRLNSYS

human RXFP1 [4] = target: T1, human RXFP1; remark: listed apart in the source
human RXFP2 [5] = target: T2, human RXFP2; remark: listed apart in the source
mouse RXFP1 [6] = target: T3, mouse RXFP1; remark: listed apart in the source

T2 sequence (Q8WXD0 whole entry): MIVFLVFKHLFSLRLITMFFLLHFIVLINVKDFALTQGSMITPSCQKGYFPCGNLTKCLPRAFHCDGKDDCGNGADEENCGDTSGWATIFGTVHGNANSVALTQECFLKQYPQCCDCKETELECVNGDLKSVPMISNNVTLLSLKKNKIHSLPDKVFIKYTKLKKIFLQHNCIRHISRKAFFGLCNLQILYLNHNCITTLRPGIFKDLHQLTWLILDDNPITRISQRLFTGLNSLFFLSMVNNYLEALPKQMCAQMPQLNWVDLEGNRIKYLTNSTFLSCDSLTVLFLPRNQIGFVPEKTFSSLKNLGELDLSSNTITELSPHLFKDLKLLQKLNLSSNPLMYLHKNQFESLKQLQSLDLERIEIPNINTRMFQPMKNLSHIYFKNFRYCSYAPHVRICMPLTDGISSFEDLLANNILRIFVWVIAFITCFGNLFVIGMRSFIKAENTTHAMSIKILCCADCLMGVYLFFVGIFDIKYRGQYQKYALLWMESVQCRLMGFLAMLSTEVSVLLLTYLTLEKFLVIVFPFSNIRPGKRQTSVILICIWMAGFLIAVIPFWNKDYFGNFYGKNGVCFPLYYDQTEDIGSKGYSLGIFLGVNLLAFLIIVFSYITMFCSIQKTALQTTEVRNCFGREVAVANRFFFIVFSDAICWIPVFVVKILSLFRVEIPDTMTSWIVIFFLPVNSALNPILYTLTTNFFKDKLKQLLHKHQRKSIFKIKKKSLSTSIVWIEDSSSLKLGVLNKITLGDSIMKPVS

EC50 hRXFP1 (M), cAMP HTRF assay (human RXFP1 [1]): 5.88e-11 M
EC50 hRXFP2 (M), cAMP HTRF assay (human RXFP2 [2]): > 1.09e-07 M
EC50 mRXFP1 (M), cAMP HTRF assay (mouse RXFP1 [3]): 2.88e-11 M
B1: RELAX0091 (Fc fusion)
chain 1: QLYSALANKCCHVGCTKRSLARFCAAAGGGGSGGGGSGGGGSGGGGSACPPCPAPEFEGGPSVFLFPPKPKDTLMISRTPEVTCVVVDVSHEDPEVKFNWYVDGVEVHNAKTKPREEQYNSTYRVVSVLTVLHQDWLNGKEYKCKVSNKALPASIEKTISKAKGQPREPQVYTLPPCREEMTKNQVSLWCLVKGFYPSDIAVEWESNGQPENNYKTTPPVLDSDGSFFLYSKLTVDKSRWQQGNVFSCSVMHEALHNHYTQKSLSLSPG
chain 2: SWMEEVIKLCGRELVRAQIAICGMSTWSAAAGGGGSGGGGSGGGGSGGGGSACPPCPAPEFEGGPSVFLFPPKPKDTLMISRTPEVTCVVVDVSHEDPEVKFNWYVDGVEVHNAKTKPREEQYNSTYRVVSVLTVLHQDWLNGKEYKCKVSNKALPASIEKTISKAKGQPREPQVCTLPPSREEMTKNQVSLSCAVKGFYPSDIAVEWESNGQPENNYKTTPPVLDSDGSFFLVSKLTVDKSRWQQGNVFSCSVMHEALHNHYTQKSLSLSPG

EC50 hRXFP1 (M), cAMP HTRF assay (human RXFP1 [4]): 1.96e-10 M
EC50 hRXFP2 (M), cAMP HTRF assay (human RXFP2 [5]): > 1.38e-07 M
EC50 mRXFP1 (M), cAMP HTRF assay (mouse RXFP1 [6]): 4.46e-11 M
B2: RELAX0063 (Fc fusion)
chain 1: DKTHTCPPCPAPEFEGGPSVFLFPPKPKDTLMISRTPEVTCVVVDVSHEDPEVKFNWYVDGVEVHNAKTKPREEQYNSTYRVVSVLTVLHQDWLNGKEYKCKVSNKALPASIEKTISKAKGQPREPQVYTLPPCREEMTKNQVSLWCLVKGFYPSDIAVEWESNGQPENNYKTTPPVLDSDGSFFLYSKLTVDKSRWQQGNVFSCSVMHEALHNHYTQKSLSLSPGGGGGSGGGGSGGGGSGGGGGSQLYSALANKCCHVGCTKRSLARAC
chain 2: DKTHTCPPCPAPEFEGGPSVFLFPPKPKDTLMISRTPEVTCVVVDVSHEDPEVKFNWYVDGVEVHNAKTKPREEQYNSTYRVVSVLTVLHQDWLNGKEYKCKVSNKALPASIEKTISKAKGQPREPQVCTLPPSREEMTKNQVSLSCAVKGFYPSDIAVEWESNGQPENNYKTTPPVLDSDGSFFLVSKLTVDKSRWQQGNVFSCSVMHEALHNHYTQKSLSLSPGGGGGSGGGGSGGGGSGGGGGSSWMEEVIKLCGRELVRAQIAICGMSTWS

EC50 hRXFP1 (M), cAMP HTRF assay (human RXFP1 [4]): 6.67e-11 M
EC50 hRXFP2 (M), cAMP HTRF assay (human RXFP2 [5]): 1.07e-07 M
EC50 mRXFP1 (M), cAMP HTRF assay (mouse RXFP1 [6]): 5.02e-11 M
B3: RELAX0070 (Fc fusion)
chain 1: B2 chain 1 with R269I, A270F
chain 2: B2 chain 2

EC50 hRXFP1 (M), cAMP HTRF assay (human RXFP1 [4]): 5.76e-11 M
EC50 hRXFP2 (M), cAMP HTRF assay (human RXFP2 [5]): > 1.62e-07 M
EC50 mRXFP1 (M), cAMP HTRF assay (mouse RXFP1 [6]): 3.69e-11 M
B4: RELAX0069 (Fc fusion)
chain 1: B2 chain 1 with R269M, A270F
chain 2: B2 chain 2

EC50 hRXFP1 (M), cAMP HTRF assay (human RXFP1 [4]): 9.47e-11 M
EC50 hRXFP2 (M), cAMP HTRF assay (human RXFP2 [5]): > 1.43e-07 M
EC50 mRXFP1 (M), cAMP HTRF assay (mouse RXFP1 [6]): 6.14e-11 M
B5: RELAX0075 (Fc fusion)
chain 1: B2 chain 1 with A270I
chain 2: B2 chain 2

EC50 hRXFP1 (M), cAMP HTRF assay (human RXFP1 [4]): 6.87e-11 M
EC50 hRXFP2 (M), cAMP HTRF assay (human RXFP2 [5]): 1.15e-07 M
EC50 mRXFP1 (M), cAMP HTRF assay (mouse RXFP1 [6]): 3.93e-11 M
B6: RELAX0071 (Fc fusion)
chain 1: B2 chain 1 with R269Q, A270F
chain 2: B2 chain 2

EC50 hRXFP1 (M), cAMP HTRF assay (human RXFP1 [4]): 5.7e-11 M
EC50 hRXFP2 (M), cAMP HTRF assay (human RXFP2 [5]): 8.63e-08 M
EC50 mRXFP1 (M), cAMP HTRF assay (mouse RXFP1 [6]): 4.15e-11 M
B7: RELAX0073 (Fc fusion)
chain 1: B2 chain 1 with R269Y, A270F
chain 2: B2 chain 2

EC50 hRXFP1 (M), cAMP HTRF assay (human RXFP1 [1]): 4.6e-11 M
EC50 hRXFP2 (M), cAMP HTRF assay (human RXFP2 [2]): 4.26e-08 M
EC50 mRXFP1 (M), cAMP HTRF assay (mouse RXFP1 [3]): 1.56e-11 M
B8: RELAX0024 (Fc fusion)
chain 1: B2 chain 1 with Y129C, C134S, W146S, L148A, Y187V, A270F
chain 2: B2 chain 2 with C129Y, S134C, S146W, A148L, V187Y

EC50 hRXFP1 (M), cAMP HTRF assay (human RXFP1 [4]): 5.45e-11 M
EC50 hRXFP2 (M), cAMP HTRF assay (human RXFP2 [5]): 9.21e-08 M
EC50 mRXFP1 (M), cAMP HTRF assay (mouse RXFP1 [6]): 4.53e-11 M
B9: RELAX0074 (Fc fusion)
chain 1: B2 chain 1 with R269S, A270F
chain 2: B2 chain 2

EC50 hRXFP1 (M), cAMP HTRF assay (human RXFP1 [4]): 8.53e-11 M
EC50 hRXFP2 (M), cAMP HTRF assay (human RXFP2 [5]): > 2.3e-07 M
EC50 mRXFP1 (M), cAMP HTRF assay (mouse RXFP1 [6]): 4.03e-11 M
B10: RELAX0072 (Fc fusion)
chain 1: B2 chain 1 with R269A, A270F
chain 2: B2 chain 2

EC50 hRXFP1 (M), cAMP HTRF assay (human RXFP1 [1]): 4.41e-11 M
EC50 hRXFP2 (M), cAMP HTRF assay (human RXFP2 [2]): 3.54e-08 M
EC50 mRXFP1 (M), cAMP HTRF assay (mouse RXFP1 [3]): 2.79e-11 M
B11: RELAX0020 (Fc fusion)
chain 1: GGAGGACPPCPAPEFEGGPSVFLFPPKPKDTLMISRTPEVTCVVVDVSHEDPEVKFNWYVDGVEVHNAKTKPREEQYNSTYRVVSVLTVLHQDWLNGKEYKCKVSNKALPASIEKTISKAKGQPREPQVYTLPPCREEMTKNQVSLWCLVKGFYPSDIAVEWESNGQPENNYKTTPPVLDSDGSFFLYSKLTVDKSRWQQGNVFSCSVMHEALHNHYTQKSLSLSPGGGGGSGGGGSGGGGSGGGGGSSWMEEVIKLCGRELVRAQIAICGMSTWS
chain 2: GGAGGACPPCPAPEFEGGPSVFLFPPKPKDTLMISRTPEVTCVVVDVSHEDPEVKFNWYVDGVEVHNAKTKPREEQYNSTYRVVSVLTVLHQDWLNGKEYKCKVSNKALPASIEKTISKAKGQPREPQVCTLPPSREEMTKNQVSLSCAVKGFYPSDIAVEWESNGQPENNYKTTPPVLDSDGSFFLVSKLTVDKSRWQQGNVFSCSVMHEALHNHYTQKSLSLSPGGGGGSGGGGSGGGGSGGGGGSQLYSALANKCCHVGCTKRSLARFC

EC50 hRXFP1 (M), cAMP HTRF assay (human RXFP1 [1]): 4.74e-11 M
EC50 mRXFP1 (M), cAMP HTRF assay (mouse RXFP1 [3]): 3.28e-11 M
B12: RELAX0022 (Fc fusion)
chain 1: B11 chain 2 with C130Y
chain 2: B11 chain 1 with C135S

EC50 hRXFP1 (M), cAMP HTRF assay (human RXFP1 [1]): 8.27e-11 M
EC50 mRXFP1 (M), cAMP HTRF assay (mouse RXFP1 [3]): 4.14e-11 M
B13: RELAX0021 (Fc fusion)
chain 1: B11 chain 2 with C130Y, S147W, A149L, V188Y
chain 2: B11 chain 1 with C135S, W147S, L149A, Y188V
